Reference: patent US9872922B2, “Anti-EFNA4 antibody-drug conjugates” (PFIZER, INC., priority 2013, dated 2018)

B1: EphB2 (protein)
chain: VEETLMDSTTATAELGWMVHPPSGWEEVSGYDENMNTIRTYQVCNVFESSQNNWLRTKFIRRRGAHRIHVEMKFSVRDCSSIPSVPGSCKETFNLYYYEADFDSATKTFPNWMENPWVKVDTIAADESFSQVDLGGRVMKINTEVRSFGPVSRSGFYLAFQDYGGCMSLIAVRVFYRKCPRIIQNGAIFQETLSGAESTSLVAARGSCIANAEEVDVPIKLYCNGDGEWLVPIGRCMCKAGFEAVENGTVCRGCPSGTFKANQGDEACTHCPINSRTTSEGATNCVCRNGYYRADLDPLDMPCTTIPSAPQAVISSVNETSLMLEWTPPRDSGGREDLVYNIICKSCGSGRGACTRCGDNVQYAPRQLGLTEPRIYISDLLAHTQYTFEIQAVNGVTDQSPFSPQFASVNITTNQAAPSAVSIMHQVSRTVDSITLSWSQPDQPNGVILDYELQYYEKELSEYNATAIKSPTNTVTVQGLKAGAIYVFQVRARTVAGYGRYSGKMYFQTMTEAEYQTSIQEKLPL
B2: EphA1 (protein)
chain: KEVTLMDTSKAQGELGWLLDPPKDGWSEQQQILNGTPLYMYQDCPMQGRRDTDHWLRSNWIYRGEEASRVHVELQFTVRDCKSFPGGAGPLGCKETFNLLYMESDQDVGIQLRRPLFQKVTTVAADQSFTIRDLVSGSVKLNVERCSLGRLTRRGLYLAFHNPGACVALVSVRVFYQRCPETLNGLAQFPDTLPGPAGLVEVAGTCLPHARASPRPSGAPRMHCSPDGEWLVPVGRCHCEPGYEEGGSGEACVACPSGSYRMDMDTPHCLTCPQQSTAESEGATICTCESGHYRAPGEGPQVACTGPPSAPRNLSFSASGTQLSLRWEPPADTGGRQDVRYSVRCSQCQGTAQDGGPCQPCGVGVHFSPGARGLTTPAVHVNGLEPYANYTFNVEAQNGVSGLGSSGHASTSVSISMGHAESLSGLSLRLVKKEPRQLELTWAGSRPRSPGANLTYELHVLNQDEERYQMVLEPRVLLTELQPDTTYIVRVRMLTPLGPGPFSPDHEFRTSPPVSRGLTGGE
B3: EphA10: recombinant Eph receptor captured on biosensor chip (protein)
chain: EEVILLDSKASQAELGWTALPSNGWEEISGVDEHDRPIRTYQVCNVLEPNQDNWLQTGWISRGRGQRIFVELQFTLRDCSSIPGAAGTCKETFNVYYLETEADLGRGRPRLGGSRPRKIDTIAADESFTQGDLGERKMKLNTEVREIGPLSRRGFHLAFQDVGACVALVSVRVYYKQCRATVRGLATFPATAAESAFSTLVEVAGTCVAHSEGEPGSPPRMHCGADGEWLVPVGRCSCSAGFQERGDFCEACPPGFYKVSPRRPLCSPCPEHSRALENASTFCVCQDSYARSPTDPPSASCTRPPSAPRDLQYSLSRSPLVLRLRWLPPADSGGRSDVTYSLLCLRCGREGPAGACEPCGPRVAFLPRQAGLRERAATLLHLRPGARYTVRVAALNGVSGPAAAAGTTYAQVTVSTGPGAPWEEDEIRRDRVEPQSVSLSWREPIPAGAPGANDTEYEIRYYEKGQSEQTYSMVKTGAPTVTVTNLKPATRYVFQIRAASPGPSWEAQSFNPSIEVQTLGEAASGSRDQSPA
B4: EphA7 (protein)
chain: QAAKEVLLLDSKAQQTELEWISSPPNGWEEISGLDENYTPIRTYQVCQVMEPNQNNWLRTNWISKGNAQRIFVELKFTLRDCNSLPGVLGTCKETFNLYYYETDYDTGRNIRENLYVKIDTIAADESFTQGDLGERKMKLNTEVREIGPLSKKGFYLAFQDVGACIALVSVKVYYKKCWSIIENLAIFPDTVTGSEFSSLVEVRGTCVSSAEEEAENAPRMHCSAEGEWLVPIGKCICKAGYQQKGDTCEPCGRGFYKSSSQDLQCSRCPTHSFSDKEGSSRCECEDGYYRAPSDPPYVACTRPPSAPQNLIFNINQTTVSLEWSPPADNGGRNDVTYRILCKRCSWEQGECVPCGSNIGYMPQQTGLEDNYVTVMDLLAHANYTFEVEAVNGVSDLSRSQRLFAAVSITTGQAAPSQVSGVMKERVLQRSVELSWQEPEHPNGVITEYEIKYYEKDQRERTYSTVKTKSTSASINNLKPGTVYVFQIRAFTAAGYGNYSPRLDVATLEEATGKMFEATAVSSEQNPV
B5: huE5: humanized antibody E5, VH SEQ ID NO: 5, VL SEQ ID NO: 7 (antibody, V domains shown)
VH: EVQLVESGGGLVQPGGSLRLSCAASGFTVTTYGVDWVRQAPGKGLEWLGVIWGGGSTNYNSALKSRFTISRDNSKNTLYLQMNSLRAEDTAVYYCASDWAYWGQGTLVTVSS
VL: DIQMTQSPSSLSASVGDRVTITCRASQNVGTNVAWFQQKPGKAPKSLIHSASYRYSGVPSRFSGSGSGTDFTLTISSLQPEDFATYYCQQYKRYPYTFGGGTKLEIK
B6: EphB3 (protein)
chain: GCRALEETLMDTKWVTSELAWTSHPESGWEEVSGYDEAMNPIRTYQVCNVRESSQNNWLRTGFIWRRDVQRVYVELKFTVRDCNSIPNIPGSCKETFNLFYYEADSDVASASSPFWMENPYVKVDTIAPDESFSRLDAGRVNTKVRSFGPLSKAGFYLAFQDQGACMSLISVRAFYKKCASTTAGFALFPETLTGAEPTSLVIAPGTCIPNAVEVSVPLKLYCNGDGEWMVPVGACTCATGHEPAAKESQCRPCPPGSYKAKQGEGPCLPCPPNSRTTSPAASICTCHNNFYRADSDSADSACTTVPSPPRGVISNVNETSLILEWSEPRDLGGRDDLLYNVICKKCHGAGGASACSRCDDNVEFVPRQLGLTERRVHISHLLAHTRYTFEVQAVNGVSGKSPLPPRYAAVNITTNQAAPSEVPTLRLHSSSGSSLTLSWAPPERPNGVILDYEMKYFEKSEGIASTVTSQMNSVQLDGLRPDARYVVQVRARTVAGYGQYSRPAEFETTSERGSGAQQLQEQLPL
B7: EphA3 (protein)
chain: ELIPQPSNEVNLLDSKTIQGELGWISYPSHGWEEISGVDEHYTPIRTYQVCNVMDHSQNNWLRTNWVPRNSAQKIYVELKFTLRDCNSIPLVLGTCKETFNLYYMESDDDHGVKFREHQFTKIDTIAADESFTQMDLGDRILKLNTEIREVGPVNKKGFYLAFQDVGACVALVSVRVYFKKCPFTVKNLAMFPDTVPMDSQSLVEVRGSCVNNSKEEDPPRMYCSTEGEWLVPIGKCSCNAGYEERGFMCQACRPGFYKALDGNMKCAKCPPHSSTQEDGSMNCRCENNYFRADKDPPSMACTRPPSSPRNVISNINETSVILDWSWPLDTGGRKDVTFNIICKKCGWNIKQCEPCSPNVRFLPRQFGLTNTTVTVTDLLAHTNYTFEIDAVNGVSELSSPPRQFAAVSITTNQAAPSPVLTIKKDRTSRNSISLSWQEPEHPNGIILDYEVKYYEKQEQETSYTILRARGTNVTISSLKPDTIYVFQIRARTAAGYGTNSRKFEFETSPDSFSISGESSQ
B8: EphA6 (protein)
chain: WPGDCSHVSNNQVVLLDTTTVLGELGWKTYPLNGWDAITEMDEHNRPIHTYQVCNVMEPNQNNWLRTNWISRDAAQKIYVEMKFTLRDCNSIPWVLGTCKETFNLFYMESDESHGIKFKPNQYTKIDTIAADESFTQMDLGDRILKLNTEIREVGPIERKGFYLAFQDIGACIALVSVRVFYKKCPFTVRNLAMFPDTIPRVDSSSLVEVRGSCVKSAEERDTPKLYCGADGDWLVPLGRCICSTGYEEIEGSCHACRPGFYKAFAGNTKCSKCPPHSLTYMEATSVCQCEKGYFRAEKDPPSMACTRPPSAPRNVVFNINETALILEWSPPSDTGGRKDLTYSVICKKCGLDTSQCEDCGGGLRFIPRHTGLINNSVIVLDFVSHVNYTFEIEAMNGVSELSFSPKPFTAITVTTDQDAPSLIGVVRKDWASQNSIALSWQAPAFSNGAILDYEIKYYEKEHEQLTYSSTRSKAPSVIITGLKPATKYVFHIRVRTATGYSGYSQKFEFETGDETSDMAAEQGQILV

What was measured:
[1] = target: T1, human Ephrin-A4 (Homo sapiens, UniProt P52798); assay: SPR steady state affinity of Eph receptors for Ephrin-A4; assay type: binding; details: for Kd: SPR BIAcore 2000, steady state affinity fit, captured Eph receptor, monomeric human Ephrin-A4 as analyte; for rank of affinity for Ephrin-A4 among nine Eph receptors: steady state affinity
T1 construct: purchased
T1 sequence (P52798 26-170): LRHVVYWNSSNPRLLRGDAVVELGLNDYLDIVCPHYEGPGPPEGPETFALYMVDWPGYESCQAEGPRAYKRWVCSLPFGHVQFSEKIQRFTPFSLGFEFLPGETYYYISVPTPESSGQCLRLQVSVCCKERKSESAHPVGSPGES
Protocol: The properties of Ephrin-A4 binding to Eph receptors were further analyzed. Since anti-EFNA4 antibodies bind to Ephrin-A4 while the ligand is engaged with its Eph receptor, the affinity between these two macromolecules was determined. The affinities of commercially available Eph receptors and Ephrin-A4 were directly compared by surface plasmon resonance using a BIAcore 2000 (GE Healthcare) to determine the most relevant receptor. An anti-human antibody capture kit was used to immobilize recombinant Eph receptors on a CM5 biosensor chip. Prior to each antigen injection cycle, Eph receptors at the concentration of 2 μg/mL were captured on the surface with a contact time of 2 minutes and a flow rate of 5 μL/min. The captured antibody loading from baseline was constant at 150-260 response units. Following receptor capture and 1 min baseline, monomeric human Ephrin-A4 was flowed over the surface at concentrations of 400, 241, 145, 87, 53, 32, 19 and 12 nM for a 2 minute association phase followed by a 2 minute dissociation phase at a flow rate of 10 μL/min. Following each cycle, the anti-human capture surface was regenerated with 30 seconds contact time of 3M MgCl2 at 10 μL/min.
Biacore data was processed by initially calculating an average of the response at equilibrium (Req). The Req was then plotted versus concentration (M) and the steady state affinity fit was used to calculate the affinity and theoretical Rmax. In all cases, at least 5 different analyte concentrations were used to make this calculation. All data analysis steps were completed in BiaEvaluation Software 3.1 (GE Healthcare).

[2] = target: T2, human EFNA4 (Homo sapiens, UniProt P52798); assay: Biacore affinity of anti-EFNA4 antibodies for EFNA4 antigen; assay type: binding; details: Biacore system
T2 sequence (P52798 26-170): T1 sequence (P52798 26-170)
Source text: More particularly murine antibodies E5, E15, E22 and E47 were humanized using a computer-aided CDR-grafting method (Abysis Database, UCL Business Pic.) and standard molecular engineering techniques to generate humanized antibodies E5, E15, E22 and E47, hereinafter huE5, huE15, huE22 and huE47, respectively. The human framework regions of the variable regions were selected based on their highest sequence homology to the mouse framework sequence and its canonical structure. For the purposes of the analysis the assignment of amino acids to each of the CDR domains is in accordance with the Kabat et al. numbering.

| Molecule | Kd [1] [nM] | rank of affinity for Ephrin-A4 among nine Eph receptors [1] | affinity for EFNA4 antigen relative to murine counterpart [2] |
| --- | --- | --- | --- |
| EphA2: recombinant Eph receptor captured on biosensor chip [reference compound] | 31 | highest affinity |  |
| B1 | 135 |  |  |
| B2 | 414 |  |  |
| B3 | 431 | lowest affinity |  |
| B4 | 86 |  |  |
| B5 |  |  | slightly lower affinity |
| B6 | 108 |  |  |
| B7 | 77 |  |  |
| B8 | 82 |  |  |
